Measurements as given in US20170369592A1, “NOVEL ANTI-FIBROBLAST ACTIVATION PROTEIN (FAP) ANTIBODIES AND USES DERIVED THEREOF” (Mabimmune Diagnostics AG, priority 2015, published 2017).

Assays:
rhFAP = molecular target: T1, rhFAP (Homo sapiens, UniProt Q12884); assay: Inhibition assay on SB9 oligopeptidase family (DQ-gelatin); type: biochemical; details: antibody up to 1000 nM, enzyme 0.2 nM
T1 construct: purchased Sino Biologicals 10464-H07H
T1 sequence (Q12884 26-760 limits assumed): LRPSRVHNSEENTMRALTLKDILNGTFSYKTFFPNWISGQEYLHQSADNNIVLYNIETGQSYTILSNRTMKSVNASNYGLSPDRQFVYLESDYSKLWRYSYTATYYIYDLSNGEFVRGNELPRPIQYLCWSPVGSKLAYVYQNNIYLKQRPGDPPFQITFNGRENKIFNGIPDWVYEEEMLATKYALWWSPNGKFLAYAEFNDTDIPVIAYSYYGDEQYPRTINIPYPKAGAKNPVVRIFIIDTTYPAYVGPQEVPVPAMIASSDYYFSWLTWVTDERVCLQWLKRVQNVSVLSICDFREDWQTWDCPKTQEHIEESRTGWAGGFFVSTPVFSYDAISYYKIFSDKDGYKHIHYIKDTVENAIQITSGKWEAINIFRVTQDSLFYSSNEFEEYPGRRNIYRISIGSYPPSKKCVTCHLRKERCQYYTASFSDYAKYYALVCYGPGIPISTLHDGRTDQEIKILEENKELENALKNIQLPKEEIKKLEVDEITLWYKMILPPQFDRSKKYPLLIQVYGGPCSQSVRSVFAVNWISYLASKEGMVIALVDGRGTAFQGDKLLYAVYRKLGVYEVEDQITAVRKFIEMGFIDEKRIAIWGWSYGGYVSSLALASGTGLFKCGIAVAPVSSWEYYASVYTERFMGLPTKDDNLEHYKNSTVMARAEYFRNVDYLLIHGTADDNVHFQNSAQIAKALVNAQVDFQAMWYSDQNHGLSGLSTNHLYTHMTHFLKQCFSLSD
Description: To determine the inhibitory ability of the antibody a black 96 well plate was blocked for 1 h with blocking buffer. NI-206.82C2 was pipetted at concentrations of 1000, 50, 10, 3.03, 1.01, 0.031, 0.001, and 0 nM in PBS into the according wells. The enzymes were added at a concentration of 0.2 nM. Finally, fluorgenic substrates were then added to the well at a concentration equal to the Michaelis constant (Km) and the velocity of the substrate cleavage was quantified by fluorescence at 360 nm excitation and 460 nm emission. H-Gly-Pro-AMC (AAT Bioquest, 13450) was used for DPP4, DPP9, and DPP8. Z-Gly-Pro-AMC (BaChem, I1145) was used to evaluate the activity of POP/PREP. FAP activity was assessed using DQ-gelatin (Life Technologies, D12054) and cleavage quantified at 495 nm excitation and 515 nm emission.

[1] = molecular target: T2, recombinant human FAP (rhFAP) (Homo sapiens, UniProt Q12884); assay: Affinity (EC50) sandwich ELISA on SB9 oligopeptidase family; type: binding; details: HRP-labelled antibody 0.004-400 nM
T2 construct: purchased Sino Biologicals 10464-H07H
T2 sequence (Q12884 26-760 limits assumed): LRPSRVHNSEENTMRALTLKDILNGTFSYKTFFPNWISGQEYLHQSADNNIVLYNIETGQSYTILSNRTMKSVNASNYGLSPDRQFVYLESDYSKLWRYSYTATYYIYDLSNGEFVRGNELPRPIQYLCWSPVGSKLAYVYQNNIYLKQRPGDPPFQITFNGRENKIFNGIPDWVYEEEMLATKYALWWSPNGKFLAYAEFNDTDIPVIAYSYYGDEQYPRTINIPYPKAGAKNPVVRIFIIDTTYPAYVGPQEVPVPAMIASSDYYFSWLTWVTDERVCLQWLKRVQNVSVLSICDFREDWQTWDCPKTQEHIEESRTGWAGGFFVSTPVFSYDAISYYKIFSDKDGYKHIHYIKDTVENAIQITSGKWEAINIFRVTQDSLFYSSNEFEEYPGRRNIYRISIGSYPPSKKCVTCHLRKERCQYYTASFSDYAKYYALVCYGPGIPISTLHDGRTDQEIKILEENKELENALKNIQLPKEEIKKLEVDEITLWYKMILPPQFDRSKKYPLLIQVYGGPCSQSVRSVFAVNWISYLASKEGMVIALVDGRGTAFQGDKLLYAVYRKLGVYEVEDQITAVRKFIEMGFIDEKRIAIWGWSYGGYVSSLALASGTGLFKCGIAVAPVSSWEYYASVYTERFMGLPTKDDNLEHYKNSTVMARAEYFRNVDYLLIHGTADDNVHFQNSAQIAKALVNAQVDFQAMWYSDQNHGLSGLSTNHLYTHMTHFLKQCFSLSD
Description: To determine the binding efficiency and inhibitory ability of NI-206.82C2 against other members of the SB9 oligopeptidase family that have sequence similarity to FAP, indirect ELISA and inhibition assays were performed on active enzyme targets. Active recombinant human enzymes evaluated in this assay include: Fibroblast Activation Protein (FAP; Sino Biologicals, 10464-H07H), Dipeptidyl Peptidase IV (DPPIV, BPS Bioscience 80040), Dipeptidyl Peptidase 8 (DPP8, BPS Bioscience 80080), Dipeptidyl Peptidase 9 (DPP9, BPS Bioscience […]), and Prolyl Oligopeptidase/Prolyl Endopeptidase (POP/PREP, BPS Bioscience 80105). Each recombinant peptidase was expressed with a purification tag, and attached to the 96 well ELISA plate using either a mouse anti-Histidine antibody (CloneTech), or a mouse anti-Glutathione S-transferase (GST, Sino Biologicals, 111213-MM02) tag antibody. Each enzyme was validated to bind and remained active on the ELISA plate using enzyme specific fluorogenic substrates. H-Gly-Pro-AMC (ATT Bioquest, 13450) was used to validate the presence and activity of DPP4, DPP9, and DPP8. […] Following a washing step, bound antibody was detected using 3,3′,5,5′-Tetramethylbenzidine (TMB) substrate. The reaction was stopped after 10 minutes by adding 2N H2SO4 and the resulting change in optical density was quantified using an ELISA plate reader at […] absorbance (FIG. 7 B).

B1: NI-206.82C2: recombinant human memory B cell-derived monoclonal anti-FAP IgG1 antibody, variable regions in FIG. 1A, FAP inhibitory (antibody, V domains shown)
VH: QVQLQQSGPGLVKPSQTLSLTCAISGDSVSSNSVTWNWIRQSPSRGLEWLGRTYYRSKWYNDYAVSVKGRITINPDTSKNQFYLQLKSVTPEDAAVYYCARDSSILYGDYWGQGTLVTVSS
VL: QAVLTQPSSLSASPGASASLTCTLPSGINVGTYRIFWFQQKPGSPPQYLLSYKSDSDNHQGSGVPSRFSGSKDASANAGILLISGLQSEDEADYYCMIWHSSAWVFGGGTKLTVL
inhibition of rhFAP (rhFAP): selectively inhibits | binding to rhFAP [1]: selectively binds
